Measured values taken from the supplement of paper PMC10567573.

B1: NFE2L1 (parent)
chain: TLDGYGIHPKSIDLDNYFTARRLL
B2: TRAF3IP2 (parent)
chain: KEHVPTWLQNTHVYSWPKNKKNIL

Variants of: B1
Test: protein stability index of a GFP-peptide fusion (GPS, HEK-293T) (PSI 1-6); higher = more stable
Conditions: c terminus: a fixed tail appended
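Note: lentivirally expressed fusions sorted by FACS into six bins by GFP to DsRed ratio, PSI derived from sequencing read proportions per bin multiplied by bin number.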

| Variant | protein stability index |
| --- | --- |
| A20Y | 1.92 |
| A20L | 1.53 |
| A20H | 1.66 |
| A20D | 2.76 |
| A20S | 2.03 |
| A20G | 1.71 |
| A20T | 1.49 |
| A20C | 1.6 |
| A20Q | 2.23 |
| A20V | 1.35 |
| A20K | 2.34 |
| A20P | 1.84 |
| A20E | 1.87 |
| G6R | 1.87 |
| G6H | 1.97 |
| G6Q | 1.94 |
| G6T | 1.83 |
| G6S | 1.62 |
| G6K | 1.91 |
| G6I | 1.58 |
| G6Y | 1.71 |
| G6D | 1.54 |
| G6C | 1.48 |
| G6N | 2.21 |
| G6V | 2.25 |

| Variant | protein stability index |
| --- | --- |
| G6E | 2.02 |
| G6F | 2.69 |
| G6W | 1.54 |
| G6L | 1.59 |
| L24Q | 1.85 |
| L24T | 2.42 |
| L24R | 3.05 |
| L24G | 2.56 |
| L24H | 2.14 |
| L24K | 2.9 |
| L24Y | 1.72 |
| L24W | 2.31 |
| L24S | 2.48 |
| L24D | 2.69 |
| L24M | 2.5 |
| L24P | 2.56 |
| L24I | 1.75 |
| I7F | 1.62 |
| I7K | 1.75 |
| I7D | 2.4 |
| I7M | 1.75 |
| I7T | 1.78 |
| I7Q | 2.35 |
| I7R | 2.04 |
| I7S | 1.91 |

| Variant | protein stability index |
| --- | --- |
| I7L | 1.7 |
| I7Y | 1.9 |
| I7A | 2.01 |
| I7H | 2.85 |
| I7W | 1.67 |
| I7E | 2.27 |
| I7C | 2.4 |
| G4N | 2.03 |
| G4Q | 1.75 |
| G4K | 1.53 |
| G4D | 2.57 |
| G4R | 1.95 |
| G4I | 1.65 |
| G4E | 1.47 |
| G4T | 1.55 |
| G4H | 1.62 |
| G4A | 1.73 |
| G4V | 1.22 |
| N16I | 3.1 |
| N16E | 2.19 |
| N16A | 1.72 |
| N16V | 2.24 |
| N16D | 2.03 |
| N16M | 1.87 |
| N16W | 1.96 |

| Variant | protein stability index |
| --- | --- |
| N16K | 1.39 |
| N16Y | 2.19 |
| N16C | 2.51 |
| N16T | 1.76 |
| N16Q | 1.8 |
| N16R | 1.82 |
| N16H | 1.9 |
| L23S | 3.05 |
| L23C | 2.41 |
| L23W | 1.82 |
| L23R | 3.19 |
| L23Q | 2.71 |
| L23Y | 2.33 |
| L23N | 2.32 |
| L23D | 2.4 |
| L23T | 2.17 |
| L23F | 1.93 |
| L23A | 2.62 |
| L23I | 1.64 |
| L23K | 3.26 |
| T19K | 2.46 |
| T19D | 2.07 |
| T19E | 2.09 |
| T19S | 1.9 |
| T19Q | 1.77 |

| Variant | protein stability index |
| --- | --- |
| T19M | 1.67 |
| T19V | 1.66 |
| T19N | 2.09 |
| T19I | 2.03 |
| T19F | 1.71 |
| T19P | 2 |
| T19A | 2.01 |
| L2T | 2.23 |
| L2H | 1.92 |
| L2S | 1.7 |
| L2I | 2.61 |
| L2V | 1.74 |
| L2K | 2.19 |
| L2C | 2.75 |
| L2Q | 1.66 |
| L2D | 2.15 |
| L2F | 1.97 |
| L2R | 1.92 |
| L14T | 2.55 |
| L14Y | 2.25 |
| L14M | 2.02 |
| L14S | 2.62 |
| L14V | 1.71 |
| L14N | 2.17 |
| L14I | 2.12 |

| Variant | protein stability index |
| --- | --- |
| L14C | 2.39 |
| L14K | 2.49 |
| L14H | 2.01 |
| L14G | 2.31 |
| L14F | 1.82 |
| L14E | 3.11 |
| L14W | 1.95 |
| H8E | 2.42 |
| H8D | 2.02 |
| H8T | 2.05 |
| H8F | 1.95 |
| H8A | 2.22 |
| H8C | 1.87 |
| H8G | 1.75 |
| H8P | 1.94 |
| H8K | 2.07 |
| H8I | 1.98 |
| H8V | 2.28 |
| H8M | 1.82 |
| H8L | 1.67 |
| H8Y | 1.72 |
| H8N | 1.78 |
| H8Q | 1.79 |
| H8S | 1.81 |
| F18Q | 2.69 |

| Variant | protein stability index |
| --- | --- |
| F18K | 2.88 |
| F18V | 3.05 |
| F18G | 2.67 |
| F18P | 2.89 |
| F18R | 2.31 |
| F18L | 1.89 |
| F18D | 3.26 |
| F18Y | 1.99 |
| F18T | 2.25 |
| F18W | 1.7 |
| F18C | 2.03 |
| P9T | 1.95 |
| P9R | 2.22 |
| P9G | 1.91 |
| P9W | 2.16 |
| P9D | 1.88 |
| P9Q | 2.08 |
| P9A | 1.68 |
| P9I | 2.39 |
| P9N | 2.66 |
| P9E | 1.97 |
| D15N | 2.2 |
| D15T | 1.77 |
| D15A | 1.9 |
| D15E | 1.96 |

| Variant | protein stability index |
| --- | --- |
| D15P | 2.06 |
| D15S | 2.44 |
| D15Q | 1.84 |
| D15W | 2.21 |
| D15M | 1.84 |
| D15V | 1.72 |
| D15K | 1.72 |
| K10M | 1.88 |
| K10P | 1.73 |
| K10F | 1.87 |
| K10S | 2.22 |
| K10R | 2.11 |
| K10G | 1.93 |
| K10Y | 1.39 |
| K10I | 1.94 |
| K10W | 2.24 |
| K10H | 2.2 |
| K10V | 1.5 |
| K10N | 2.44 |
| D13S | 1.83 |
| D13W | 2.21 |
| D13A | 1.84 |
| D13C | 2 |
| D13H | 1.64 |
| D13E | 2.45 |

| Variant | protein stability index |
| --- | --- |
| D13P | 2.26 |
| D13Y | 1.46 |
| D13N | 2.1 |
| D13K | 1.72 |
| D13T | 2.11 |
| D13M | 1.64 |
| D13V | 1.76 |
| D13L | 1.73 |
| I12A | 1.89 |
| I12K | 1.85 |
| I12P | 3.06 |
| I12M | 1.75 |
| I12R | 1.93 |
| I12D | 3.05 |
| I12S | 1.87 |
| I12T | 1.99 |
| I12V | 1.85 |
| I12F | 2.02 |
| I12Y | 1.99 |
| I12H | 2.24 |
| I12L | 1.66 |
| I12Q | 2.33 |
| Y17P | 3.23 |
| Y17C | 1.71 |
| Y17Q | 2.92 |

| Variant | protein stability index |
| --- | --- |
| Y17K | 2.57 |
| Y17M | 2.36 |
| Y17E | 3.09 |
| Y17W | 1.5 |
| Y17L | 2.06 |
| Y17T | 2.24 |
| Y17R | 2.58 |
| Y17H | 2.56 |
| Y17F | 3.17 |
| Y17N | 2.59 |
| Y17I | 2.25 |
| R22P | 1.97 |
| R22T | 2.25 |
| R22W | 2.21 |
| R22K | 2.2 |
| R22A | 1.49 |
| R22C | 2.16 |
| R22Y | 1.89 |
| R22E | 1.88 |
| R22V | 1.71 |
| R22I | 3.54 |
| R22D | 2.05 |
| R22N | 1.85 |
| D3E | 2.14 |
| D3I | 2.06 |

| Variant | protein stability index |
| --- | --- |
| D3L | 2.58 |
| D3Y | 2.25 |
| D3S | 1.71 |
| D3Q | 1.79 |
| D3G | 1.65 |
| D3V | 1.62 |
| D3F | 3.12 |
| D3W | 1.47 |
| D3H | 1.25 |
| Y5T | 2.13 |
| Y5M | 2.5 |
| Y5H | 2.12 |
| Y5K | 1.85 |
| Y5L | 2.3 |
| Y5G | 2.43 |
| Y5W | 1.97 |
| Y5A | 2.67 |
| Y5D | 2.8 |
| Y5I | 2.21 |
| Y5N | 2.25 |
| Y5P | 2.13 |
| Y5R | 1.76 |
| Y5V | 2.42 |
| Y5S | 2.05 |
| Y5F | 1.89 |

| Variant | protein stability index |
| --- | --- |
| R21D | 2.67 |
| R21V | 2.72 |
| R21S | 1.69 |
| R21A | 1.67 |
| R21C | 1.7 |
| R21P | 2.05 |
| R21L | 1.9 |
| R21Q | 1.71 |
| R21Y | 3.26 |
| R21K | 1.96 |
| R21I | 1.6 |
| R21W | 1.08 |
| R21N | 1.8 |
| R21T | 1.56 |
| T1N | 1.61 |
| T1I | 1.36 |
| T1K | 1.52 |
| T1M | 1.77 |
| T1C | 1.92 |
| T1H | 1.69 |
| T1E | 1.54 |
| T1R | 1.66 |
| T1G | 1.46 |
| T1Y | 2.32 |
| T1V | 1.55 |

| Variant | protein stability index |
| --- | --- |
| S11E | 2.28 |
| S11F | 2.29 |
| S11D | 2.38 |
| S11K | 2.58 |
| S11Q | 1.89 |
| S11C | 1.98 |
| S11I | 1.4 |
| S11N | 2.19 |
| S11V | 2.49 |
| S11G | 1.91 |
| S11Y | 1.67 |
| S11W | 1.67 |
| S11M | 1.57 |

Variants of: B2
Test: as above
Conditions: c terminus: a fixed tail appended

| Variant | protein stability index |
| --- | --- |
| L24F | 2.2 |
| L24M | 2.73 |
| L24Q | 2.98 |
| L24H | 3.17 |
| L24T | 3.18 |
| L24S | 2.51 |
| L24E | 2.84 |
| L24C | 2.69 |
| L24A | 3.28 |
| L24R | 3.49 |
| L24G | 3.93 |
| L24V | 2.47 |
| L24Y | 2.51 |
| L24P | 2.98 |
| L24K | 3.49 |
| L24D | 3.24 |
| L24N | 3.08 |
| L24W | 1.86 |
| L24I | 2.67 |
| I23W | 2.3 |
| I23Y | 3.55 |
